Results reported in patent US20200017851A1.

Experiments:
mesothelin (MSLN) [1] = target: mesothelin (MSLN) (UniProt Q13421); assay: virus binding to Panc-1 cells (MSLN strongly-positive), 4 C, E4 qPCR; reference AdMG553 (Ad5/Ad3 fiber)
mesothelin (MSLN) [2] = target: mesothelin (MSLN) (UniProt Q13421); assay: virus binding to Panc-1 cells (MSLN strongly-positive), 4 C, E4 qPCR; reference AdML-5WT (native Ad5 fiber)

AdML-VTIN (isolated adenovirus with the VTINRSA (SEQ ID NO:12) motif in the AB-loop of the fiber knob) (from UniProt P11818 1-410; P11818 418-581)
fold binding ability against AdMG553 (mesothelin (MSLN) [1]): 2 fold
fold binding ability against AdML-5WT (mesothelin (MSLN) [2]): 5 fold
